Reference: patent US20260103490A1
Where no end group is shown, it is not given here. [ ]: non-standard residue; d: D form.

Experiments:
[1] = biological target: NbALFA^ST (NbALFA clone 1G5); assay: off-rate assay: peptide elution from NbALFA^ST resin; tag position C
[2] = biological target: NbALFA^ST (NbALFA clone 1G5); assay: off-rate assay: peptide elution from NbALFA^ST resin; tag position N

Sequence of NbALFA^ST (NbALFA clone 1G5) (VHH, as listed by the source): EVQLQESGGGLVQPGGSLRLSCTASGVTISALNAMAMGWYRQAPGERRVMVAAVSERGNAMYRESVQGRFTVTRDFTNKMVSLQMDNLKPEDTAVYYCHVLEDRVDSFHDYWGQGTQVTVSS

Binder | t1/2 [1] | t1/2 [2]
GPSGLEQELRRRL [gp…. (SEQ ID NO: 108)] | < 2 min | 
MSGLEQELRRRLTP[code s] (not fully specified; printed as MSGLEQELRRRLTPs) […s (SEQ ID NO: 110)] |  | < 2 min
